Experimental data as given in publication PMC11812572, “NuMA is a mitotic adaptor protein that activates dynein and connects it to microtubule minus ends” (The Journal of Cell Biology, 2025).

Biological target: the molecule itself
Experiment: mass photometry; TwoMP mass photometer; 5-20 nM protein in the respective TIRF microscopy assay buffer without methylcellulose; monomer to dimer

Row | Protein | stoichiometry N
1 | mScarlet-tagged human NuMA C-terminal fragment aa 1560-2115, mScarlet-NuMA^(C-term L) (domain or fragment, UniProt Q14980-1 1560-2115, looked up, NuMA, human, isoform 1 (NM_006185), aa 1560-2115: part of the predicted coiled-coil and the entire C-terminal tail; Mixed population of monomers and dimers by mass photometry; source: Sf21 insect cells (baculovirus), purified (StrepTrap, TEV cleavage, SEC); not shown: Strep-tag II, N-terminal, cleaved; mScarlet, N-terminal, kept) TSDQASKVQQQKLKAVQAQGGESQQEAQRLQAQLNELQAQLSQKEQAAEHYKLQMEKAKTHYDAKKQQNQELQEQLRSLEQLQKENKELRAEAERLGHELQQAGLKTKEAEQTCRHLTAQVRSLEAQVAHADQQLRDLGKFQVATDALKSREPQAKPQLDLSIDSLDLSCEEGTPLSITSKLPRTQPDGTSVPGEPASPISQRLPPKVESLESLYFTPIPARSQAPLESSLDSLGDVFLDSGRKTRSARRRTTQIINITMAKKLDVEEPDSANSSFYSTRSAPASQASLRATSSTQSLARLGSPDYGNSALLSLPGYRPTTRSSARRSQAGVSSGAPPGRNSFYMGTCQDEPEQLDDWNRIAELQQRNRVCPPHLKTCYPLESRPSLSLGTITDEEMKTGDPQETLRRASMQPIQIAEGTGITTRQQRKRVSLEPHQGPGTPESKKATSCFPRPMTPRDRHEGRKQSTTEAQKKAAPASTKQADRRQSMAFSILNTPKKLGNSLLRRGASKKALSKASPNTRSGTRRSPRIATTTASAATAAAIGATPRAKGKAKHLE | 2
2 | AF546- or AF647-labelled SNAP-tagged human NuMA N-terminal fragment (first 705 aa), NuMA^N-term (domain or fragment, UniProt Q14980-1 1-705, looked up, SNAP-tag labelled with SNAP-Surface Alexa Fluor 546 or SNAP-Surface Alexa Fluor 647, nuclear mitotic apparatus protein (NuMA), human, isoform 1 (NM_006185), first 705 aa; two stop codons inserted after aa 705; codon-optimised for S. frugiperda; A PreScission site lies between the SNAP-tag and NuMA; Dimeric by mass photometry; the construct described is SNAP-tagged; also called AF546-NuMA^N-term; AF647-NuMA^N-term; source: Sf21 insect cells (baculovirus), purified (StrepTrap, TEV …)) MTLHATRGAALLSWVNSLHVADPVEAVLQLQDCSIFIKIIDRIHGTEEGQQILKQPVSERLDFVCSFLQKNRKHPSSPECLVSAQKVLEGSELELAKMTMLLLYHSTMSSKSPRDWEQFEYKIQAELAVILKFVLDHEDGLNLNEDLENFLQKAPVPSTCSSTFPEELSPPSHQAKREIRFLELQKVASSSSGNNFLSGSPASPMGDILQTPQFQMRRLKKQLADERSNRDELELELAENRKLLTEKDAQIAMMQQRIDRLALLNEKQAASPLEPKELEELRDKNESLTMRLHETLKQCQDLKTEKSQMDRKINQLSEENGDLSFKLREFASHLQQLQDALNELTEEHSKATQEWLEKQAQLEKELSAALQDKKCLEEKNEILQGKLSQLEEHLSQLQDNPPQEKGEVLGDVLQLETLKQEAATLAANNTQLQARVEMLETERGQQEAKLLAERGHFEEEKQQLSSLITDLQSSISNLSQAKEELEQASQAHGARLTAQVASLTSELTTLNATIQQQDQELAGLKQQAKEKQAQLAQTLQQQEQASQGLRHQVEQLSSSLKQKEQQLKEVAEKQEATRQDHAQQLATAAEEREASLRERDAALKQLEALEKEKAAKLEILQQQLQVANEARDSAQTSVTQAQREKAELSRKVEELQACVETARQEQHEAQAQVAELELQLRSEQQKATEKERVAQEKDQLQEQLQ | 2
